Experiments:
[1] = target: GFP-tagged membrane-anchored full-length MHV spike protein (MHV, strain A59 (assumed as for the …, UniProt P11224)); assay: immunostaining of cells or tissue
[2] = target: HCoV-OC43 spike ectodomain (HCoV-OC43, strain Paris, UniProt Q696P8); assay: BLI
[3] = target: SARS-CoV-2 spike ectodomain (SARS-CoV-2, Wuhan-Hu-1, UniProt P0DTC2); assay: BLI
[4] = target: HCoV-HKU1 spike ectodomain (HCoV-HKU1, strain Caen1, UniProt E0YJ44, strain); assay: ELISA
[5] = target: MHV spike S2 ectodomain (MHV, strain A59, UniProt P11224); assay: ELISA

B1: human monoclonal antibody 28D9 (antibody, V domains shown)
VH: QVQLQQSGPGLVKPSQTLSLTCAISGDNVFSNSAAWNWIRQSPSRGLEWLGRTYYRSKWNNDYAVSVKGRITINPDTYKNQFSLQLNPVTPEDTAVYFCARVPMNRGGMDVWGQGTTVTVSS
VL: not shown
With B1 the binding result [1] was “binds”, the Kd [2] was 7.45 nM and the Kd [3] was 5.96 nM. B1: no binding (tested: 10 μg/ml) [4]; binds [5].

B2: human monoclonal antibody 1.6C7 (antibody, V domains shown)
VH: QVQLQQSGPGLVKPSQTLSLTCAISGDSVSSDSAAWNWIRQSPSRGLEWLGRTYFRSKWNNHYAVSVKSRITINPDTSKNQFSLLLNPVTPEDTAVYYCARATLARGALDYWGQGTLVTVSS
VL: not shown
With B2 the binding result [1] was “binds”, the Kd [2] was 5.28 nM and the binding result [4] was “no binding (tested: 10 μg/ml)”. B2: binds [5].

From doi:10.1101/2020.10.20.346916 (bioRxiv, 2020)
